In the oligonucleotide strings, read from the 5' end, every base follows the letter of its sugar. An asterisk marks phosphorothioate; unmarked linkages are phosphodiester. Other units and linkages are bracketed, terminal groups are in braces. A string of capitals states the bases alone. m = 2'-O-methyl; r = 2'-OH (RNA)
Columns and labels:
[1] = test system: PCSK9 gene; assay: PCSK9 gRNA/SpCas9 editing in primary human hepatocytes (Tables 2, 4); type: cell-based; details: SpCas9 mRNA MS002 1:1 by weight; for Human Primary Hepatocyte Editing % 100: 100 ng/RNA/mL; for Human Primary Hepatocyte Editing % 500: 500 ng/RNA/mL; for Human Primary Hepatocyte Editing % 2500: 2500 ng/RNA/mL
Procedure, shortened: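 Primary human hepatocytes co-transfected with PCSK9 gRNA plus SpCas9 mRNA (1:1 by weight) at 2500, 500 or 100 ng RNA/mL, or 2500–250 ng/mL for tracr-modified guides. Editing at the target site read by amplicon next-generation sequencing of extracted genomic DNA.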

[2] = test system: PCSK9 gene; assay: PCSK9 gRNA/SpCas9 editing in primary cynomolgus hepatocytes (Tables 2, 22); type: cell-based, cynomolgus monkey; details: SpCas9 mRNA MS002 1:1 by weight; for Cyno Primary Hepatocyte Editing % 100: 100 ng/RNA/mL; for Cyno Primary Hepatocyte Editing % 500: 500 ng/RNA/mL; for Cyno Primary Hepatocyte Editing % 2500: 2500 ng/RNA/mL

B1: GA247: PCSK9 gRNA; protospacer CCTCGCCAGGCGCTGGCAGG (SEQ ID NO: 240) (nucleic acid)
guide: CCUCGCCAGGCGCUGGCAGGGUUUUAGAGCUAGAAAUAGCAAGUUAAAAUAAGGCUAGUCCGUUAUCAACUUGAAAAAGUGGCACCGAGUCGGUGCUUUU
modifications: sugars from the 5' end m3 r94 m3, linkages s3 o93 s3 (s phosphorothioate, o phosphodiester), T or U not given here
[1]
  Human Primary Hepatocyte Editing % 100: 0.25%
  Human Primary Hepatocyte Editing % 500: 0.17%
  Human Primary Hepatocyte Editing % 2500: 6.76%
[2]
  Cyno Primary Hepatocyte Editing % 100: 0.71%
  Cyno Primary Hepatocyte Editing % 500: 2.62%
  Cyno Primary Hepatocyte Editing % 2500: 11.48%

B2: GA168: PCSK9 gRNA; protospacer CTTGGCGCAGCGGTGGAAGG (SEQ ID NO: 162) (nucleic acid)
guide: CUUGGCGCAGCGGUGGAAGGGUUUUAGAGCUAGAAAUAGCAAGUUAAAAUAAGGCUAGUCCGUUAUCAACUUGAAAAAGUGGCACCGAGUCGGUGCUUUU
modifications: sugars from the 5' end m3 r94 m3, linkages s3 o93 s3 (s phosphorothioate, o phosphodiester), T or U not given here
[1]
  Human Primary Hepatocyte Editing % 500: 25.77%
  Human Primary Hepatocyte Editing % 2500: 54.99%
[2]
  Cyno Primary Hepatocyte Editing % 100: 4.75%
  Cyno Primary Hepatocyte Editing % 500: 15.90%
  Cyno Primary Hepatocyte Editing % 2500: 41.49%

B3: GA170: PCSK9 gRNA; protospacer CCAGGACCGCCTGGAGCTGA (SEQ ID NO: 164) (nucleic acid)
guide: CCAGGACCGCCUGGAGCUGAGUUUUAGAGCUAGAAAUAGCAAGUUAAAAUAAGGCUAGUCCGUUAUCAACUUGAAAAAGUGGCACCGAGUCGGUGCUUUU
modifications: sugars from the 5' end m3 r94 m3, linkages s3 o93 s3 (s phosphorothioate, o phosphodiester), T or U not given here
[1]
  Human Primary Hepatocyte Editing % 100: 2.9%
  Human Primary Hepatocyte Editing % 500: 15.84%
  Human Primary Hepatocyte Editing % 2500: 31.35%
[2]
  Cyno Primary Hepatocyte Editing % 100: 4.03%
  Cyno Primary Hepatocyte Editing % 500: 11.48%
  Cyno Primary Hepatocyte Editing % 2500: 23.17%

B4: GA167: PCSK9 gRNA; protospacer TCAGCTCCAGGCGGTCCTGG (SEQ ID NO: 161) (nucleic acid)
guide: UCAGCUCCAGGCGGUCCUGGGUUUUAGAGCUAGAAAUAGCAAGUUAAAAUAAGGCUAGUCCGUUAUCAACUUGAAAAAGUGGCACCGAGUCGGUGCUUUU
modifications: sugars from the 5' end m3 r94 m3, linkages s3 o93 s3 (s phosphorothioate, o phosphodiester), T or U not given here
[1]
  Human Primary Hepatocyte Editing % 100: 8.2%
  Human Primary Hepatocyte Editing % 500: 25.87%
  Human Primary Hepatocyte Editing % 2500: 53.71%
[2]
  Cyno Primary Hepatocyte Editing % 100: 11.98%
  Cyno Primary Hepatocyte Editing % 500: 35.98%
  Cyno Primary Hepatocyte Editing % 2500: 66.07%

B5: GA165: PCSK9 gRNA; protospacer CCGTCAGCTCCAGGCGGTCC (SEQ ID NO: 159) (nucleic acid)
guide: CCGUCAGCUCCAGGCGGUCCGUUUUAGAGCUAGAAAUAGCAAGUUAAAAUAAGGCUAGUCCGUUAUCAACUUGAAAAAGUGGCACCGAGUCGGUGCUUUU
modifications: sugars from the 5' end m3 r94 m3, linkages s3 o93 s3 (s phosphorothioate, o phosphodiester), T or U not given here
[1]
  Human Primary Hepatocyte Editing % 100: 4.99%
  Human Primary Hepatocyte Editing % 500: 22.3%
  Human Primary Hepatocyte Editing % 2500: 40.27%
[2]
  Cyno Primary Hepatocyte Editing % 100: 5.43%
  Cyno Primary Hepatocyte Editing % 500: 18.00%
  Cyno Primary Hepatocyte Editing % 2500: 35.57%

B6: GA169: PCSK9 gRNA; protospacer CGTGCGCAGGAGGACGAGGA (SEQ ID NO: 163) (nucleic acid)
guide: CGUGCGCAGGAGGACGAGGAGUUUUAGAGCUAGAAAUAGCAAGUUAAAAUAAGGCUAGUCCGUUAUCAACUUGAAAAAGUGGCACCGAGUCGGUGCUUUU
modifications: sugars from the 5' end m3 r94 m3, linkages s3 o93 s3 (s phosphorothioate, o phosphodiester), T or U not given here
[1]
  Human Primary Hepatocyte Editing % 100: 5.49%
  Human Primary Hepatocyte Editing % 500: 15.15%
  Human Primary Hepatocyte Editing % 2500: 46.65%
[2]
  Cyno Primary Hepatocyte Editing % 100: 3.45%
  Cyno Primary Hepatocyte Editing % 500: 18.28%
  Cyno Primary Hepatocyte Editing % 2500: 42.38%

B7: GA171: PCSK9 gRNA; protospacer TCTTGGTGAGGTATCCCCGG (SEQ ID NO: 165) (nucleic acid)
guide: UCTTGGTGAGGTATCCCCGGGTTTTAGAGCTAGAAATAGCAAGTTAAAATAAGGCTAGTCCGTTATCAACTTGAAAAAGTGGCACCGAGTCGGTGCTTTT
modifications: 2'-O-methyl at 1, 2, other sugars, backbone and T or U not given here; further chemistry not fully specified
[1]
  Human Primary Hepatocyte Editing % 100: 2.37%
  Human Primary Hepatocyte Editing % 500: 9.38%
  Human Primary Hepatocyte Editing % 2500: 31.75%
[2]
  Cyno Primary Hepatocyte Editing % 100: 1.29%
  Cyno Primary Hepatocyte Editing % 500: 9.06%
  Cyno Primary Hepatocyte Editing % 2500: 27.79%

B8: GA245: PCSK9 gRNA; protospacer GTGCTGCTGCCCCTGGCGGG (SEQ ID NO: 238) (nucleic acid)
guide: GUGCUGCUGCCCCUGGCGGGGUUUUAGAGCUAGAAAUAGCAAGUUAAAAUAAGGCUAGUCCGUUAUCAACUUGAAAAAGUGGCACCGAGUCGGUGCUUUU
modifications: sugars from the 5' end m3 r94 m3, linkages s3 o93 s3 (s phosphorothioate, o phosphodiester), T or U not given here
[1]
  Human Primary Hepatocyte Editing % 100: 1.68%
  Human Primary Hepatocyte Editing % 500: 2.97%
  Human Primary Hepatocyte Editing % 2500: 2.9%
[2]
  Cyno Primary Hepatocyte Editing % 100: 0.19%
  Cyno Primary Hepatocyte Editing % 500: 0.88%
  Cyno Primary Hepatocyte Editing % 2500: 7.07%

B9: GA162: PCSK9 gRNA; protospacer GGACGGCGACTACGAGGAGC (SEQ ID NO: 156) (nucleic acid)
guide: mG*mG*mA*rCrGrGrCrGrArCrUrArCrGrArGrGrArGrCrGrUrUrUrUrArGrArGrCrUrArGrArArArUrArGrCrArArGrUrUrArArArArUrArArGrGrCrUrArGrUrCrCrGrUrUrArUrCrArArCrUrUrGrArArArArArGrUrGrGrCrArCrCrGrArGrUrCrGrGrUrGrCrU*mU*mU*mU
[1]
  Human Primary Hepatocyte Editing % 100: 2.14%
  Human Primary Hepatocyte Editing % 500: 12.97%
  Human Primary Hepatocyte Editing % 2500: 42.8%
[2]
  Cyno Primary Hepatocyte Editing % 100: 1.62%
  Cyno Primary Hepatocyte Editing % 500: 11.18%
  Cyno Primary Hepatocyte Editing % 2500: 28.26%

B10: GA164: PCSK9 gRNA; protospacer GTCCTCGTCCTCCTGCGCAC (SEQ ID NO: 158) (nucleic acid)
guide: GUCCUCGUCCUCCUGCGCACGUUUUAGAGCUAGAAAUAGCAAGUUAAAAUAAGGCUAGUCCGUUAUCAACUUGAAAAAGUGGCACCGAGUCGGUGCUUUU
modifications: sugars from the 5' end m3 r94 m3, linkages s3 o93 s3 (s phosphorothioate, o phosphodiester), T or U not given here
[1]
  Human Primary Hepatocyte Editing % 100: 2.68%
  Human Primary Hepatocyte Editing % 500: 11.12%
  Human Primary Hepatocyte Editing % 2500: 25.77%
[2]
  Cyno Primary Hepatocyte Editing % 100: 2.75%
  Cyno Primary Hepatocyte Editing % 500: 13.96%
  Cyno Primary Hepatocyte Editing % 2500: 34.89%

B11: GA166: PCSK9 gRNA; protospacer CGCCCGTGCGCAGGAGGACG (SEQ ID NO: 160) (nucleic acid)
guide: CGCCCGUGCGCAGGAGGACGGUUUUAGAGCUAGAAAUAGCAAGUUAAAAUAAGGCUAGUCCGUUAUCAACUUGAAAAAGUGGCACCGAGUCGGUGCUUUU
modifications: sugars from the 5' end m3 r94 m3, linkages s3 o93 s3 (s phosphorothioate, o phosphodiester), T or U not given here
[1]
  Human Primary Hepatocyte Editing % 100: 2.89%
  Human Primary Hepatocyte Editing % 500: 10.99%
  Human Primary Hepatocyte Editing % 2500: 36.89%
[2]
  Cyno Primary Hepatocyte Editing % 100: 3.93%
  Cyno Primary Hepatocyte Editing % 500: 14.39%
  Cyno Primary Hepatocyte Editing % 2500: 44.77%

B12: GA163: PCSK9 gRNA; protospacer CGTCCTCGTCCTCCTGCGCA (SEQ ID NO: 157) (nucleic acid)
guide: CGUCCUCGUCCUCCUGCGCAGUUUUAGAGCUAGAAAUAGCAAGUUAAAAUAAGGCUAGUCCGUUAUCAACUUGAAAAAGUGGCACCGAGUCGGUGCUUUU
modifications: sugars from the 5' end m3 r94 m3, linkages s3 o93 s3 (s phosphorothioate, o phosphodiester), T or U not given here
[1]
  Human Primary Hepatocyte Editing % 100: 2.31%
  Human Primary Hepatocyte Editing % 500: 9.2%
  Human Primary Hepatocyte Editing % 2500: 29.32%
[2]
  Cyno Primary Hepatocyte Editing % 100: 5.99%
  Cyno Primary Hepatocyte Editing % 500: 17.69%
  Cyno Primary Hepatocyte Editing % 2500: 49.50%

B13: GA172: PCSK9 gRNA; protospacer CAGTGCGCTCTGACTGCGAG (SEQ ID NO: 166) (nucleic acid)
guide: CAGUGCGCUCUGACUGCGAGGUUUUAGAGCUAGAAAUAGCAAGUUAAAAUAAGGCUAGUCCGUUAUCAACUUGAAAAAGUGGCACCGAGUCGGUGCUUUU
modifications: sugars from the 5' end m3 r94 m3, linkages s3 o93 s3 (s phosphorothioate, o phosphodiester), T or U not given here
[1]
  Human Primary Hepatocyte Editing % 100: 0.32%
  Human Primary Hepatocyte Editing % 500: 3.52%
  Human Primary Hepatocyte Editing % 2500: 14.01%
[2]
  Cyno Primary Hepatocyte Editing % 100: 0.51%
  Cyno Primary Hepatocyte Editing % 500: 2.11%
  Cyno Primary Hepatocyte Editing % 2500: 15.58%

B14: GA246: PCSK9 gRNA; protospacer GCCAGCGCCTGGCGAGGGCT (SEQ ID NO: 239) (nucleic acid)
guide: GCCAGCGCCUGGCGAGGGCUGUUUUAGAGCUAGAAAUAGCAAGUUAAAAUAAGGCUAGUCCGUUAUCAACUUGAAAAAGUGGCACCGAGUCGGUGCUUUU
modifications: sugars from the 5' end m3 r94 m3, linkages s3 o93 s3 (s phosphorothioate, o phosphodiester), T or U not given here
[1]
  Human Primary Hepatocyte Editing % 100: 0.08%
  Human Primary Hepatocyte Editing % 500: 2.17%
  Human Primary Hepatocyte Editing % 2500: 17.95%
[2]
  Cyno Primary Hepatocyte Editing % 100: 1.11%
  Cyno Primary Hepatocyte Editing % 500: 5.78%
  Cyno Primary Hepatocyte Editing % 2500: 24.63%

Source: patent US20250152746A1, “BASE EDITING OF ANGPTL3 AND METHODS OF USING SAME FOR TREATMENT OF DISEASE” (Verve Therapeutics, Inc., priority 2020, published 2025)
